Results as given in paper PMC2778870, “The Crystal Structures of Yeast Get3 Suggest a Mechanism for Tail-Anchored Protein Membrane Insertion” (PLoS ONE, 2009).

Tests used:
[1] = target: T1, D. hansenii Get3 (Debaryomyces hansenii, UniProt Q6BSM0); assay: X-ray crystallography, […] A, co-crystallization; settings: 2 mM ADP, 1 mM MgCl2, 5 mM KCl, 0.2 M ammonium mono-basic phosphate, 20% glycerol; nucleotide-binding domain, closed dimer
T1 construct: recombinant, expressed and purified; homo-dimer; finger domain not visible in electron density
T1 sequence (Q6BSM0 1-348): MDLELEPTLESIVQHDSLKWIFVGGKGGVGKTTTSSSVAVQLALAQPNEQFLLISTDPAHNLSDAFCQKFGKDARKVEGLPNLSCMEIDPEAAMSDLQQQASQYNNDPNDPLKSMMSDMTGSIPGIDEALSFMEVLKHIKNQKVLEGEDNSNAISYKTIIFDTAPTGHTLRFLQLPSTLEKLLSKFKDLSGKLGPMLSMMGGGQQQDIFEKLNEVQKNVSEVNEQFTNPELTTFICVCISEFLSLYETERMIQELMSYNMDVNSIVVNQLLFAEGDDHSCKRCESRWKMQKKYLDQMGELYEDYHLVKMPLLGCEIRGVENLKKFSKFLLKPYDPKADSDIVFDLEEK

[2] = target: the molecule itself; assay: crystal structure; S. cerevisiae Get3, nucleotide-free, 2.3 Å; hanging drop, 100 mM MES pH 6.0, PEG 3350 15%, 0.2 M ammonium sulfate; two monomers in the asymmetric unit
[3] = target: the molecule itself; assay: crystal structure; D. hansenii Get3 with ADP, 1.8 Å; hanging drop, 0.2 M ammonium mono-basic phosphate, 20% glycerol, 1 mM MgCl2, 5 mM KCl, 2 mM ADP

Nc1ncnc2c1ncn2[C@@H]1O[C@H](COP(=O)(O)OP(=O)(O)O)[C@@H](O)[C@H]1O [ADP]
X-ray crystallography, 1.8 A, co-crystallization [1]: The bound ADP molecule can be clearly identified in the Get3 nucleotide-binding domain (NBD)

B1: S. cerevisiae full-length Get3 (enzyme, UniProt Q12154 1-354, looked up)
chain: MDLTVEPNLHSLITSTTHKWIFVGGKGGVGKTTSSCSIAIQMALSQPNKQFLLISTDPAHNLSDAFGEKFGKDARKVTGMNNLSCMEIDPSAALKDMNDMAVSRANNNGSDGQGDDLGSLLQGGALADLTGSIPGIDEALSFMEVMKHIKRQEQGEGETFDTVIFDTAPTGHTLRFLQLPNTLSKLLEKFGEITNKLGPMLNSFMGAGNVDISGKLNELKANVETIRQQFTDPDLTTFVCVCISEFLSLYETERLIQELISYDMDVNSIIVNQLLFAENDQEHNCKRCQARWKMQKKYLDQIDELYEDFHVVKMPLCAGEIRGLNNLTKFSQFLNKEYNPITDGKVIYELEDKE
notes: Get3 (Arr4) ATPase, S. cerevisiae, full length; in the crystal residues 191-210 (molecule A) and 93-116 (molecule B) are not seen; Se-Met protein was used for phasing only; One Zn ion is held between the two monomers; also called ScGet3; Arr4; source: E. coli, purified (Ni-chelating column, gel-filtration column)
stoichiometry N [2]: 2

B2: D. hansenii Get3 (enzyme)
chain: MDLELEPTLESIVQHDSLKWIFVGGKGGVGKTTTSSSVAVQLALAQPNEQFLLISTDPAHNLSDAFCQKFGKDARKVEGLPNLSCMEIDPEAAMSDLQQQASQYNNDPNDPLKSMMSDMTGSIPGIDEALSFMEVLKHIKNQKVLEGEDNSNAISYKTIIFDTAPTGHTLRFLQLPSTLEKLLSKFKDLSGKLGPMLSMMGGGQQQDIFEKLNEVQKNVSEVNEQFTNPELTTFICVCISEFLSLYETERMIQELMSYNMDVNSIVVNQLLFAEGDDHSCKRCESRWKMQKKYLDQMGELYEDYHLVKMPLLGCEIRGVENLKKFSKFLLKPYDPKADSDIVFDLEEK
notes: Get3 ATPase of the yeast D. hansenii (Debaryomyces hansenii); finger domain not seen in the electron density; Crystallised with ADP and Mg; also called DhGet3; source: expressed and purified
stoichiometry N [3]: 2
